In PMC5708649, “A novel Porphyromonas gingivalis enzyme: An atypical dipeptidyl peptidase III with an ARM repeat domain” (PLoS ONE, 2017):

Legend:
[1] = tested on: Cc1cc(=O)oc2cc(NC(=O)[C@H](CCCNC(=N)N)NC(=O)[C@@H](N)CCCNC(=N)N)ccc12; assay: purified protein, by the assay type; conditions: pH 8.0; 26.0 °C
[2] = tested on: N=C(N)NCCC[C@H](NC(=O)[C@@H](N)CCCNC(=N)N)C(=O)Nc1ccc2ccccc2c1; assay: purified protein, by the assay type; conditions: pH 8.0; 26.0 °C

Work on “DPP III fragment (1–679 aa) (Porphyromonas gingivalis W83)” yielded a Km [1] of 9.97 ± 0.44 µM, a kcat [1] of 0.0024 ± 0.0014 s⁻¹ and a kcat/Km [1] of 241 M⁻¹ s⁻¹. It also gave a Km [2] of 4.37 ± 0.42 µM, a kcat [2] of 0.0032 ± 0.0005 s⁻¹ and a kcat/Km [2] of 732 M⁻¹ s⁻¹.
